# Results from article PMC4533229 (Journal of Structural Biology, 2015).
# T1: hLGR5_(ecto)–mRspo2_(Fu1-Fu2) complex, formed beforehand by coexpression (human | mouse, UniProt O75473 32-487; Q8BFU0 39-144)
# T1 construct: as the chain of m1: vector residues; as the chain of m1: human LGR5 ectodomain, R32 up to the residue before the replaced loop A488-H537; printed ends RGCPTH...FGVCEN; as the chain of m1: linker that replaces A488-H537; as the chain of m1: human LGR5 after the replaced loop; as the chain of m1: vector residues before the His10 tag; as the chain of m2: vector residues; as the chain of m2: mouse …
# T1 chain 1: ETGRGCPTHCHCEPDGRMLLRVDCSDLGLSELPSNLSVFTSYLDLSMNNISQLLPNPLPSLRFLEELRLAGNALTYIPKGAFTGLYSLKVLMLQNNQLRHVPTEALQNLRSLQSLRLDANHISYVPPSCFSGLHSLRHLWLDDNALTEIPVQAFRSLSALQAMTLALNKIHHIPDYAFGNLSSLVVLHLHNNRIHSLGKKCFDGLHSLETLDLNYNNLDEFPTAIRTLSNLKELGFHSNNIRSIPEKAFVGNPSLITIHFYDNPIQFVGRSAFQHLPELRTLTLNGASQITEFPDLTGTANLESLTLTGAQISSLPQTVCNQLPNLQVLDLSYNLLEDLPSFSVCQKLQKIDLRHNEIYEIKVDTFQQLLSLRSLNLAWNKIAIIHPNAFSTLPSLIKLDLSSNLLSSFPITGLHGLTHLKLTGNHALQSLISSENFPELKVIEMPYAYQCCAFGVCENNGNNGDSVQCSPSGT
# T1 chain 2: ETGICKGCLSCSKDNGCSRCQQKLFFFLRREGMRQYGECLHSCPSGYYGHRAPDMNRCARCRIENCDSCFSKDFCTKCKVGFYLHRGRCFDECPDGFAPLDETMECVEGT
# B1: human LGR5 ectodomain variant (hLGR5_(ecto)), R32-S543 with the loop A488-H537 replaced by an NGNNGD linker (domain or fragment)
# chain: ETGRGCPTHCHCEPDGRMLLRVDCSDLGLSELPSNLSVFTSYLDLSMNNISQLLPNPLPSLRFLEELRLAGNALTYIPKGAFTGLYSLKVLMLQNNQLRHVPTEALQNLRSLQSLRLDANHISYVPPSCFSGLHSLRHLWLDDNALTEIPVQAFRSLSALQAMTLALNKIHHIPDYAFGNLSSLVVLHLHNNRIHSLGKKCFDGLHSLETLDLNYNNLDEFPTAIRTLSNLKELGFHSNNIRSIPEKAFVGNPSLITIHFYDNPIQFVGRSAFQHLPELRTLTLNGASQITEFPDLTGTANLESLTLTGAQISSLPQTVCNQLPNLQVLDLSYNLLEDLPSFSVCQKLQKIDLRHNEIYEIKVDTFQQLLSLRSLNLAWNKIAIIHPNAFSTLPSLIKLDLSSNLLSSFPITGLHGLTHLKLTGNHALQSLISSENFPELKVIEMPYAYQCCAFGVCENNGNNGDSVQCSPSGT
# notes: residues left by the vector pHLsec after removal of the signal peptide; human LGR5 ectodomain, R32 up to the residue before the replaced loop A488-H537; printed ends RGCPTH...FGVCEN; linker that replaces A488-H537; human LGR5 after the replaced loop; vector residues before the His10 tag; Cloned into pHLsec H10; not shown: His10, C-terminal, kept
# B2: mouse R-spondin 2 Furin tandem repeat fragment (mRspo2_(Fu1-Fu2), I39-G144) (domain or fragment)
# chain: ETGICKGCLSCSKDNGCSRCQQKLFFFLRREGMRQYGECLHSCPSGYYGHRAPDMNRCARCRIENCDSCFSKDFCTKCKVGFYLHRGRCFDECPDGFAPLDETMECVEGT
# notes: residues left by the vector after removal of the signal peptide; mouse R-spondin 2, Fu1-Fu2, I39-G144; printed ends ICKGCL...MECVEG; vector residue before the His10 tag; not shown: His10, C-terminal, kept
# B3: mouse ZNRF3 ectodomain (mZNRF3_(ecto)) (domain or fragment, UniProt Q5SSZ7 53-216, looked up)
# chain: KETAFVEVVLFESSPSGDYTTHTTGLTGRFSRAGAMLSAEGEIVQMHPLGLCNNNDEEDLYEYGWVGVVKLEQPELDPKPCLTVLGKAKRAVQRGATAVIFDVSENPEAIDQLNQGSEDPLKRPVVYVKGADAIKLMNIVNKQKVARARIQHLPPRQPTEYFDM
# notes: mouse ZNRF3 ectodomain; chain C of PDB 4C99 was the search model; source: produced as described (Zebisch et al., 2013); large scale mammalian expression, purified
# Experiments:
# [1] = molecular target: the molecule itself; test: crystal structure; hLGR5_(ecto)–mRspo2_(Fu1-Fu2) complex from coexpression, 5.9 mg/ml; sitting drop; 25% (w/v) PEG 3350, 200 mM lithium sulphate, 100 mM bis-Tris pH 5.5; 2.2 Å; two copies of the complex in the asymmetric unit
# [2] = molecular target: B2; test: as above; conditions: both partners purified
# [3] = molecular target: B1; test: as above; conditions: both partners purified
# [4] = molecular target: the molecule itself; test: crystal structure; approximately stoichiometric amounts of the hLGR5_(ecto)–mRspo2_(Fu1-Fu2) complex and mZNRF3_(ecto) mixed in 10 mM Tris/HCl pH 9.0, 1000 mM NaCl, 1.3 mg/ml; crystals in 100 mM ammonium acetate, 600 mM NaCl, 50 mM MES pH 6.0, 5 mM MgSO4; 4.8 Å, anisotropic; 2:2:2 complex generated by crystallographic symmetry
# [5] = molecular target: T1, hLGR5_(ecto)–mRspo2_(Fu1-Fu2) complex, …; test: as above; conditions: both partners purified
binder,measurement,setting,value
B1,stoichiometry N,[1],2
same,binding result,[2],binds
B2,stoichiometry N,[3],1
B3,stoichiometry N,[4],2
same,stoichiometry N,[5],1
